B1: 31I, 72A (protein, listed as Rattus norvegicus)
chain: AFDGTWKVDRNENYEKFMEKMGINVVKRKLIAHDNLKLTITQEGNKFTVKESSNFRNIDVVFELGVDFAYSAADGTELTGTWTMEGNKLVGKFKRVDNGKELIAVREISGNELIQTYTYEGVEAKRIFKKE
modifications: PEPTIDE (1)...(131) wild-type rat intestinal fatty acid binding protein
B2: 104N, 72A (protein, listed as Rattus norvegicus)
chain: AFDGTWKVDRNENYEKFMEKMGINVVKRKLGAHDNLKLTITQEGNKFTVKESSNFRNIDVVFELGVDFAYSAADGTELTGTWTMEGNKLVGKFKRVDNGKELINVREISGNELIQTYTYEGVEAKRIFKKE
modifications: PEPTIDE (1)...(131) wild-type rat intestinal fatty acid binding protein
B3: 31R, 72A (protein, listed as Rattus norvegicus)
chain: AFDGTWKVDRNENYEKFMEKMGINVVKRKLRAHDNLKLTITQEGNKFTVKESSNFRNIDVVFELGVDFAYSAADGTELTGTWTMEGNKLVGKFKRVDNGKELIAVREISGNELIQTYTYEGVEAKRIFKKE
modifications: PEPTIDE (1)...(131) wild-type rat intestinal fatty acid binding protein
B4: 31E, 72A (protein, listed as Rattus norvegicus)
chain: AFDGTWKVDRNENYEKFMEKMGINVVKRKLEAHDNLKLTITQEGNKFTVKESSNFRNIDVVFELGVDFAYSAADGTELTGTWTMEGNKLVGKFKRVDNGKELIAVREISGNELIQTYTYEGVEAKRIFKKE
modifications: PEPTIDE (1)...(131) wild-type rat intestinal fatty acid binding protein
B5: 31T, 72A (protein, listed as Rattus norvegicus)
chain: AFDGTWKVDRNENYEKFMEKMGINVVKRKLTAHDNLKLTITQEGNKFTVKESSNFRNIDVVFELGVDFAYSAADGTELTGTWTMEGNKLVGKFKRVDNGKELIAVREISGNELIQTYTYEGVEAKRIFKKE
modifications: PEPTIDE (1)...(131) wild-type rat intestinal fatty acid binding protein
B6: 38W, 72A (protein, listed as Rattus norvegicus)
chain: AFDGTWKVDRNENYEKFMEKMGINVVKRKLGAHDNLKWTITQEGNKFTVKESSNFRNIDVVFELGVDFAYSAADGTELTGTWTMEGNKLVGKFKRVDNGKELIAVREISGNELIQTYTYEGVEAKRIFKKE
modifications: PEPTIDE (1)...(131) wild-type rat intestinal fatty acid binding protein
B7: 62W, 72A (protein, listed as Rattus norvegicus)
chain: AFDGTWKVDRNENYEKFMEKMGINVVKRKLGAHDNLKLTITQEGNKFTVKESSNFRNIDVVWELGVDFAYSAADGTELTGTWTMEGNKLVGKFKRVDNGKELIAVREISGNELIQTYTYEGVEAKRIFKKE
modifications: PEPTIDE (1)...(131) wild-type rat intestinal fatty acid binding protein
B8: 49I, 72A (protein, listed as Rattus norvegicus)
chain: AFDGTWKVDRNENYEKFMEKMGINVVKRKLGAHDNLKLTITQEGNKFTIKESSNFRNIDVVFELGVDFAYSAADGTELTGTWTMEGNKLVGKFKRVDNGKELIAVREISGNELIQTYTYEGVEAKRIFKKE
modifications: PEPTIDE (1)...(131) wild-type rat intestinal fatty acid binding protein
B9: 70Q, 72A (protein, listed as Rattus norvegicus)
chain: AFDGTWKVDRNENYEKFMEKMGINVVKRKLGAHDNLKLTITQEGNKFTVKESSNFRNIDVVFELGVDFAQSAADGTELTGTWTMEGNKLVGKFKRVDNGKELIAVREISGNELIQTYTYEGVEAKRIFKKE
modifications: PEPTIDE (1)...(131) wild-type rat intestinal fatty acid binding protein
B10: 62Y, 72A (protein, listed as Rattus norvegicus)
chain: AFDGTWKVDRNENYEKFMEKMGINVVKRKLGAHDNLKLTITQEGNKFTVKESSNFRNIDVVYELGVDFAYSAADGTELTGTWTMEGNKLVGKFKRVDNGKELIAVREISGNELIQTYTYEGVEAKRIFKKE
modifications: PEPTIDE (1)...(131) wild-type rat intestinal fatty acid binding protein
B11: 31F, 72A (protein, listed as Rattus norvegicus)
chain: AFDGTWKVDRNENYEKFMEKMGINVVKRKLFAHDNLKLTITQEGNKFTVKESSNFRNIDVVFELGVDFAYSAADGTELTGTWTMEGNKLVGKFKRVDNGKELIAVREISGNELIQTYTYEGVEAKRIFKKE
modifications: PEPTIDE (1)...(131) wild-type rat intestinal fatty acid binding protein
B12: 23V, 72A (protein, listed as Rattus norvegicus)
chain: AFDGTWKVDRNENYEKFMEKMGVNVVKRKLGAHDNLKLTITQEGNKFTVKESSNFRNIDVVFELGVDFAYSAADGTELTGTWTMEGNKLVGKFKRVDNGKELIAVREISGNELIQTYTYEGVEAKRIFKKE
modifications: PEPTIDE (1)...(131) wild-type rat intestinal fatty acid binding protein
B13: 11Q, 72A (protein, listed as Rattus norvegicus)
chain: AFDGTWKVDRQENYEKFMEKMGINVVKRKLGAHDNLKLTITQEGNKFTVKESSNFRNIDVVFELGVDFAYSAADGTELTGTWTMEGNKLVGKFKRVDNGKELIAVREISGNELIQTYTYEGVEAKRIFKKE
modifications: PEPTIDE (1)...(131) wild-type rat intestinal fatty acid binding protein
B14: 104S, 72A (protein, listed as Rattus norvegicus)
chain: AFDGTWKVDRNENYEKFMEKMGINVVKRKLGAHDNLKLTITQEGNKFTVKESSNFRNIDVVFELGVDFAYSAADGTELTGTWTMEGNKLVGKFKRVDNGKELISVREISGNELIQTYTYEGVEAKRIFKKE
modifications: PEPTIDE (1)...(131) wild-type rat intestinal fatty acid binding protein
B15: 73Y, 72A (protein, listed as Rattus norvegicus)
chain: AFDGTWKVDRNENYEKFMEKMGINVVKRKLGAHDNLKLTITQEGNKFTVKESSNFRNIDVVFELGVDFAYSAYDGTELTGTWTMEGNKLVGKFKRVDNGKELIAVREISGNELIQTYTYEGVEAKRIFKKE
modifications: PEPTIDE (1)...(131) wild-type rat intestinal fatty acid binding protein
B16: 38Y 72G 117M (protein, listed as Rattus norvegicus)
chain: AFDGTWKVDRNENYEKFMEKMGINVVKRKLGAHDNLKYTITQEGNKFTVKESSNFRNIDVVFELGVDFAYSGADGTELTGTWTMEGNKLVGKFKRVDNGKELIAVREISGNELIQTMTYEGVEAKRIFKKE
modifications: PEPTIDE (1)...(131) wild-type rat intestinal fatty acid binding protein
B17: 18L, 72A (protein, listed as Rattus norvegicus)
chain: AFDGTWKVDRNENYEKFLEKMGINVVKRKLGAHDNLKLTITQEGNKFTVKESSNFRNIDVVFELGVDFAYSAADGTELTGTWTMEGNKLVGKFKRVDNGKELIAVREISGNELIQTYTYEGVEAKRIFKKE
modifications: PEPTIDE (1)...(131) wild-type rat intestinal fatty acid binding protein

Experiments:
Assay type in all cases: binding
[1] = Probe fluorescence ratio response to palmitic acid relative to ADIFAB2; conditions: response relative to ADIFAB2
How it was run: (§1)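 Each fatty acid's response was expressed relative to ADIFAB2, the rI-FABP-L72A probe, as ΔR/ΔRreference. ΔR is the change in the background-corrected two-wavelength intensity ratio R=Fλ1/Fλ2 from its analyte-free baseline R0. Emission was read near about 420-480 nm for unbound and about 495-580 nm for FFA-bound probe.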

[2] = Probe fluorescence ratio response to oleic acid relative to ADIFAB2; conditions: response relative to ADIFAB2
How it was run: as §1

[3] = Probe fluorescence ratio response to linoleic acid relative to ADIFAB2; conditions: response relative to ADIFAB2
How it was run: as §1

[4] = Probe fluorescence ratio response to arachidonic acid relative to ADIFAB2; conditions: arachidonic acid; response relative to ADIFAB2
How it was run: as §1

[5] = Probe fluorescence ratio response to linolenic acid relative to ADIFAB2; conditions: response relative to ADIFAB2
How it was run: as §1

Molecule | DR/DR PA [1] | DR/DR OA [2] | DR/DR LA [3] | DR/DR AA [4] | DR/DR LNA [5]
B1 | 0.091 | −0.213 | 0.168 | 0.303 | 0.413
B2 | 0.406 | 0.408 | 0.385 | 1.018 | 0.391
B3 | 0.342 | 0.227 | 0.405 | 0.250 | 0.437
B4 | 0.223 | 0.211 | 0.430 | 0.238 | 0.522
B5 | 0.145 | −0.024 | 0.215 | 0.143 | 0.510
B6 | 1.552 | 1.583 | 2.413 | 1.350 | 1.336
B7 | 1.450 | 2.155 | 2.339 | 2.206 | 2.120
B8 | 1.162 | 1.804 | 1.839 | 1.796 | 1.820
B9 | 0.868 | 1.604 | 1.819 | 1.546 | 1.622
B10 | 1.037 | 1.439 | 1.545 | 1.598 | 1.395
B11 | 1.438 | 1.331 | 1.759 | 1.210 | 1.647
B12 | 1.475 | 1.561 | 1.731 | 1.464 | 1.351
B13 | 1.450 | 1.716 | 1.715 | 1.525 | 1.582
B14 | 1.570 | 1.663 | 1.715 | 1.638 | 1.538
B15 | 0.982 | 1.537 | 1.711 | 1.529 | 1.603
B16 | 0.574 | 1.137 | 1.233 | 1.541 | 1.228
B17 | 1.090 | 1.551 | 1.596 | 1.490 | 1.544

Reference: patent US20060257938A1, “Method of screening for drugs that block ligand binding to a lipid binding protein” (priority 2005, published 2006)
